The target of the assay is T1, tagless human TIM-3 IgV domain (human, UniProt Q8TDQ0 24-130).
T1 construct: N-terminal methionine added before Val24; T-cell immunoglobulin and mucin domain containing protein-3 (TIM-3, HAVCR2), human, IgV domain, Val24 thru Lys130; the same tagless protein was used for crystallization and ELISA; also called tagless hTIM-3 IgV domain; hTIM-3 IgV domain
Kind of assay: ELISA; tagless hTIM-3 IgV (50 μl of 250 nM) coated on the plate; GST tagged hCEACAM1 IgV (0–15 μM) or GST control in Dulbeccos PBS; detected with goat polyclonal anti-GST-HRP. The note with it: both partners purified. In general terms: In an ELISA, binding on a coated surface is turned into a signal by an enzyme label.

Drawing on PMC6269442, “High resolution X-ray and NMR structural study of human T-cell immunoglobulin and mucin domain containing protein-3” (Scientific Reports, 2018), this text covers EC50 for one molecule.

T1 sequence (Q8TDQ0 other isoform, or with tags, fused parts or gaps): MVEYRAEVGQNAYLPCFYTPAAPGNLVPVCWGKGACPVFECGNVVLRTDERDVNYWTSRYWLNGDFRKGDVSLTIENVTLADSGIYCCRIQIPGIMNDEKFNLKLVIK

B1: glutathione-S-transferase (GST) tagged hCEACAM1 IgV-domain protein (domain or fragment, human, UniProt P13688 35-142, looked up)
chain: QLTTESMPFNVAEGKEVLLLVHNLPQQLFGYSWYKGERVDGNRQIVGYAIGTQQATPGPANSGRETIYPNASLLIQNVTQNDTGFYTLQVIKSDLVNEEATGQFHVYP
notes: carcinoembryonic antigen cell adhesion molecule 1 (CEACAM1), human, IgV (N-terminal) domain; Detected by an anti-GST-HRP antibody; also called GST-hCEACAM1 IgV fusion protein
As for B1, the EC50 turned out to be 3.13 µM.

What is called EC50 is the concentration that produces a half-maximal response.
